We go through 1 molecule from paper PMC6803640, “Oligomeric state, hydrodynamic properties and target recognition of human Calcium and Integrin Binding protein 2 (CIB2)” (Scientific Reports, 2019).

Data set [1] is described as follows: Analytical size exclusion chromatography. The data set is classed as physicochemical. The protocol: The molecular weight (MW) of the proteins was determined before and after DSBU-modification as previously described[7] in the same buffer (20 mM HEPES, pH 7.5, 1 mM DTT, 1 mM Mg^2+ and 2 mM Ca^2+). […] Standard calibration curve for MW estimation was the same used in our previous study.
(In general: In gel filtration, larger molecules generally elute earlier.)

The target of another data set is T1, human CIB2 (Homo sapiens, UniProt O75838).
T1 construct: made in house
T1 sequence (O75838 1-187): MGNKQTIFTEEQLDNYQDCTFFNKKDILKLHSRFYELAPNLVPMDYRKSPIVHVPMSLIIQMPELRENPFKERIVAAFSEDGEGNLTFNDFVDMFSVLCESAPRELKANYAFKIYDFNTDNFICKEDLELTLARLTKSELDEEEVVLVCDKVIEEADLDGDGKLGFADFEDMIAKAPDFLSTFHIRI
The data set can be described thus: SPR CIB2 dimerization. The conditions noted are these: amine-coupled CIB2 (130 RU and 226 RU), CIB2 92 nM – 46 μM injected; Ca^2+ and Mg^2+. The data set is classed as binding. The text has this: SPR is a powerful and versatile technique to detect at real time biomolecular interactions, and it can be applied to study protein oligomerization, in particular dimerization, when care is taken to immobilize on the surface of a sensor chip low amounts of proteins under controlled conditions[27]–[29]. Two independent experiments were run following low levels of amine-coupling of CIB2 (130 RU and 226 RU, respectively) on the surface of a sensor chip. […]
by summing the volume of each residue and correcting the final volume for electrostriction as explained in Ref.4, therefore the specific volume for Rec, CaM and CIB2 were 0.712, 0.694 and 0.715 cm3/g respectively. The molecular weight used for the estimation of hydrodynamic diameter was calculated based on the effective protein sequence of each pdb file using Protein Calculator 3.4 (http://protcalc.sourceforge.net/).
Surface plasmon resonance analysis
A SensiQ Pioneer surface plasmon resonance instrument (FortéBio Pall) was employed for the investigation of the CIB2 dimerization and for the real-time monitoring of its interaction with selected peptides. For studies of on-chip CIB2 dimerization, HBS buffer (20 mM HEPES, pH 7.5, 150 mM KCl, 1 mM MgCl2, 50 µM EDTA, 0.005% Tween 20), was used both as immobilization and running buffer, with the addition of fresh 1 mM DTT just before each experiment. […]

The test system of another data set is CIB2. As to conditions: fused with GFP and tdTomato; cited from earlier work. The text has this: Our previous work with untagged purified CIB2 also concluded that CIB2 is dimeric. We now provide new lines of evidence that allow us to reconsider some of the previous findings in the light of MS ...
For data set [2] the following is noted: reducing conditions, different cation-bound states; cited from earlier work. The text has this: Moreover, DLS experiments performed with the samples collected immediately after elution from the SEC column measured a relatively high hydrodynamic diameter (d^Mg = 8.43 nm and d^Ca = 8.18 nm), which was also interpreted as an evidence of a dimeric protein[8]. […] According to a calibration curve obtained with globular proteins of known MW, these bands would correspond to an apparent MW (MW^SEC) of 35.9 kDa in the absence and of 36.7 kDa in the presence of the cross-linker, thus very similar to those obtained in our previo ...

Entries after “also recorded” stand apart in the source; their conditions may differ.

B1: CIB2: Recombinant human CIB2, Ca^2+ and Mg^2+-binding protein (protein)
chain: MGNKQTIFTEEQLDNYQDCTFFNKKDILKLHSRFYELAPNLVPMDYRKSPIVHVPMSLIIQMPELRENPFKERIVAAFSEDGEGNLTFNDFVDMFSVLCESAPRELKANYAFKIYDFNTDNFICKEDLELTLARLTKSELDEEEVVLVCDKVIEEADLDGDGKLGFADFEDMIAKAPDFLSTFHIRI
modifications: left off: His tag, end not stated, cleaved
On to B1, for which the “apparent MW (MW^SEC)” value in data set [1] (absence of cross-linker, 1 mM Mg^2+, 2 mM Ca^2+) came out at 35.9 kDa; in data set [1] (presence of DSBU cross-linker, 1 mM Mg^2+, 2 mM Ca^2+) it was 36.7 kDa. Also, the “MW^SEC” value in data set [1] (analytical SEC, 20 mM HEPES pH 7.4, 150 mM KCl, 1 mM DTT, 1 mM Mg^2+, 2 mM Ca^2+, CIB2 ∼70 µM (A2 band), Rec ∼80 µM, CaM ∼110 µM) came to 37.8 kDa. In data set [1] (lower intensity shoulder A1 at lower elution time, predicted), the “MW^SEC, A1 shoulder” value is given as 81.3 kDa. The “dimerization signal by SPR” value with human CIB2 is “sensorgrams, except for some non-specific bulk effect; also recorded: In no case was a signal detected; also recorded: SPR did not detect dimerization”. Besides, in the data set on CIB2, the dimer formation result is “found to form dimers”. For the same molecule, in data set [2], the “apparent MW (MW^SEC), previous work” value is 37–39 kDa.
